B1: Golgi SNAP receptor complex member 2 (Homo sapiens), O14653 (parent)
chain: MDPLFQQTHKQVHEIQSCMGRLETADKQSVHIVENEIQASIDQIFSRLERLEILSSKEPPNKRQNARLRVDQLKYDVQHLQTALRNFQHRRHAREQQERQREELLSRTFTTNDSDTTIPMDESLQFNSSLQKVHNGMDDLILDGHNILDGLRTQRLTLKGTQKKILDIANMLGLSNTVMRLIEKRAFQDKYFMIGGMLLTCVVMFLVVQYLT
partner: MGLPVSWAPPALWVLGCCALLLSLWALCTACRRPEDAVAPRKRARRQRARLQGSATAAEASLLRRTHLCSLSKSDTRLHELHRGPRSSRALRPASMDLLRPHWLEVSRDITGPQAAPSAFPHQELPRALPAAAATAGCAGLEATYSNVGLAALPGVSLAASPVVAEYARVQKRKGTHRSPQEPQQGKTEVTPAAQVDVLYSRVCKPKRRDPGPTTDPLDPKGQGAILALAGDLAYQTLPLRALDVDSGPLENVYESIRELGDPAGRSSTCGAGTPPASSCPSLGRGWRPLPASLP
B2: Transmembrane protein 43 (Homo sapiens), Q9BTV4 (parent)
chain: MAANYSSTSTRREHVKVKTSSQPGFLERLSETSGGMFVGLMAFLLSFYLIFTNEGRALKTATSLAEGLSLVVSPDSIHSVAPENEGRLVHIIGALRTSKLLSDPNYGVHLPAVKLRRHVEMYQWVETEESREYTEDGQVKKETRYSYNTEWRSEIINSKNFDREIGHKNPSAMAVESFMATAPFVQIGRFFLSSGLIDKVDNFKSLSLSKLEDPHVDIIRRGDFFYHSENPKYPEVGDLRVSFSYAGLSGDDPDLGPAHVVTVIARQRGDQLVPFSTKSGDTLLLLHHGDFSAEEVFHRELRSNSMKTWGLRAAGWMAMFMGLNLMTRILYTLVDWFPVFRDLVNIGLKAFAFCVATSLTLLTVAAGWLFYRPLWALLIAGLALVPILVARTRVPAKKLE
partner: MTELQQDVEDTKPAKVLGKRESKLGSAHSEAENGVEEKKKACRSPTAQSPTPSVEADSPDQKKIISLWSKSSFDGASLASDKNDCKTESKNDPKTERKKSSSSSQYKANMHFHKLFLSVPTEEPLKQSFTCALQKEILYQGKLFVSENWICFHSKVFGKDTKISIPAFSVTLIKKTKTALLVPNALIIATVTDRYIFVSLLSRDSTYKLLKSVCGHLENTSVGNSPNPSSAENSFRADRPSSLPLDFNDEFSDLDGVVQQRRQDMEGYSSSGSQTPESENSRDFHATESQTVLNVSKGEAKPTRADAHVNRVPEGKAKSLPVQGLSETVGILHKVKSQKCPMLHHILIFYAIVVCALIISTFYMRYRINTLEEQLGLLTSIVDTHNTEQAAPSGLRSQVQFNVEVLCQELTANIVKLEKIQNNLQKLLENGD
B3: Catenin alpha-3 (Homo sapiens), Q9UI47-2 (parent)
chain: MSAETPITLNIDPQDLQVQTFTVEKLLEPLIIQVTTLVNCPQNPSSRKKGRSKRASVLLASVEEATWNLLDKGEKIAQEATVLKDELTASLEEVRKESEALKVSAERFTDDPCFLPKREAVVQAARALLAAVTRLLILADMIDVMCLLQHVSAFQRTFESLKNVANKSDLQKTYQKLGKELENLDYLAFKRQQDLKSPNQRDEIAGARASLKENSPLLHSICSACLEHSDVASLKASKDTVCEEIQNALNVISNASQGIQNMTTPPEPQAATLGSALDELENLIVLNPLTVTEEEIRPSLEKRLEAIISGAALLADSSCTRDLHRERIIAECNAIRQALQDLLSEYMNNAGKKERSNTLNIALDNMCKKTRDLRRQLRKAIIDHVSDSFLDTTVPLLVLIEAAKNGREKEIKEYAAIFHEHTSRLVEVANLACSMSTNEDGIKIVKIAANHLETLCPQIINAALALAARPKSQAVKNTMEMYKRTWENHIHVLTEAVDDITSIDDFLAVSGMFLFF
partner: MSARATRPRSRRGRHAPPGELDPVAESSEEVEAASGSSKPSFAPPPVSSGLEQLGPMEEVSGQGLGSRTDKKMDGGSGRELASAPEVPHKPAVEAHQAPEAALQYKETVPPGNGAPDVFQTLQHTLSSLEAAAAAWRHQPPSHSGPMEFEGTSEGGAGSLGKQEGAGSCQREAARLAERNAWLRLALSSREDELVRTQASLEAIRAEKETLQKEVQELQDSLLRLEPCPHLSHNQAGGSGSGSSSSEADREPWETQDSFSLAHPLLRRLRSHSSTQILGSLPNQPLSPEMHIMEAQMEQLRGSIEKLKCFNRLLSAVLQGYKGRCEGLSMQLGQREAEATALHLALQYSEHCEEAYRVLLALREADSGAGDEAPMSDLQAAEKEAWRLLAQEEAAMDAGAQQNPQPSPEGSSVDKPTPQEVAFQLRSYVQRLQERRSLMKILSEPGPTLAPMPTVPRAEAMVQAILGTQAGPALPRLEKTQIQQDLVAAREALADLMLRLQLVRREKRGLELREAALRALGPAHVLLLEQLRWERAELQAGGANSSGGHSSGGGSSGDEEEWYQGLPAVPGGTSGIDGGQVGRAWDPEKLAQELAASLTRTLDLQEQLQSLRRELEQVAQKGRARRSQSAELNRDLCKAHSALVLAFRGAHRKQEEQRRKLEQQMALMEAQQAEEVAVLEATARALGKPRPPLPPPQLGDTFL
B4: Golgi SNAP receptor complex member 2 (Homo sapiens), O14653 (parent)
chain: B1 chain
partner: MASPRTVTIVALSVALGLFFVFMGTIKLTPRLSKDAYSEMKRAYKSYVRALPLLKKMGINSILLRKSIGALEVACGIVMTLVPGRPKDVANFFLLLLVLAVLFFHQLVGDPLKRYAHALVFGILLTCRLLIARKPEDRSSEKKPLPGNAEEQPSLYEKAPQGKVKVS
B5: Dolichol kinase (Homo sapiens), Q9UPQ8 (parent)
chain: MTRECPSPAPGPGAPLSGSVLAEAAVVFAVVLSIHATVWDRYSWCAVALAVQAFYVQYKWDRLLQQGSAVFQFRMSANSGLLPASMVMPLLGLVMKERCQTAGNPFFERFGIVVAATGMAVALFSSVLALGITRPVPTNTCVILGLAGGVIIYIMKHSLSVGEVIEVLEVLLIFVYLNMILLYLLPRCFTPGEALLVLGGISFVLNQLIKRSLTLVESQGDPVDFFLLVVVVGMVLMGIFFSTLFVFMDSGTWASSIFFHLMTCVLSLGVVLPWLHRLIRRNPLLWLLQFLFQTDTRIYLLAYWSLLATLACLVVLYQNAKRSSSESKKHQAPTIARKYFHLIVVATYIPGIIFDRPLLYVAATVCLAVFIFLEYVRYFRIKPLGHTLRSFLSLFLDERDSGPLILTHIYLLLGMSLPIWLIPRPCTQKGSLGGARALVPYAGVLAVGVGDTVASIFGSTMGEIRWPGTKKTFEGTMTSIFAQIISVALILIFDSGVDLNYSYAWILGSISTVSLLEAYTTQIDNLLLPLYLLILLMA
partner: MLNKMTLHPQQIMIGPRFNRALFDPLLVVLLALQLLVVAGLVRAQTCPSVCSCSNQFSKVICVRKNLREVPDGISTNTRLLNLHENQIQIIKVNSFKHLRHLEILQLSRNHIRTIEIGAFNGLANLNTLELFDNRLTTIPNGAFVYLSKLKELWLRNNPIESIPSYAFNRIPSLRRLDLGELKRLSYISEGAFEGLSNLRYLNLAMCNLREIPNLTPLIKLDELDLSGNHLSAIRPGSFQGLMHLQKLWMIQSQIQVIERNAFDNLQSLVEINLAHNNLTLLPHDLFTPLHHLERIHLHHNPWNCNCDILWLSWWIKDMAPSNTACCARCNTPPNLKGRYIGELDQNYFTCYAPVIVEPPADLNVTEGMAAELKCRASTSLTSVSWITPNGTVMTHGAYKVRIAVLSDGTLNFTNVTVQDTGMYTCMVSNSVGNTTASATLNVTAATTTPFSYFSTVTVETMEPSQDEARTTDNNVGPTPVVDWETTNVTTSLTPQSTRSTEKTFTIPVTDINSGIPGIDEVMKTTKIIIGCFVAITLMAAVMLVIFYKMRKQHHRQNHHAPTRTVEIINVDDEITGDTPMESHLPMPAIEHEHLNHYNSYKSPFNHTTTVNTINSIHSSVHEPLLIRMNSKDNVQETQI
B6: Very-long-chain enoyl-CoA reductase (Homo sapiens), Q9NZ01 (parent)
chain: MKHYEVEILDAKTREKLCFLDKVEPHATIAEIKNLFTKTHPQWYPARQSLRLDPKGKSLKDEDVLQKLPVGTTATLYFRDLGAQISWVTVFLTEYAGPLFIYLLFYFRVPFIYGHKYDFTSSRHTVVHLACICHSFHYIKRLLETLFVHRFSHGTMPLRNIFKNCTYYWGFAAWMAYYINHPLYTPPTYGAQQVKLALAIFVICQLGNFSIHMALRDLRPAGSKTRKIPYPTKNPFTWLFLLVSCPNYTYEVGSWIGFAIMTQCLPVALFSLVGFTQMTIWAKGKHRSYLKEFRDYPPLRMPIIPFLL
partner: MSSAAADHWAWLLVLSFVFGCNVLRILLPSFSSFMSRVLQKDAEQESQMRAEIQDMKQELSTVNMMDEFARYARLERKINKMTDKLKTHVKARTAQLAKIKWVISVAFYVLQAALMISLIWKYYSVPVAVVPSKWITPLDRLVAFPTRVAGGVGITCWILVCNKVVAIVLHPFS
B7: Transmembrane protein 43 (Homo sapiens), Q9BTV4 (parent)
chain: B2 chain
partner: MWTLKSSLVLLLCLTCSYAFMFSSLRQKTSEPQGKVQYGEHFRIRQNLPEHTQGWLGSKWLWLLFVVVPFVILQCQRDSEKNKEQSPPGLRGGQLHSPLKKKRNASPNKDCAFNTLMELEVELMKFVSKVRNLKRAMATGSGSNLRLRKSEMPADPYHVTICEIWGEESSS
B8: Very-long-chain enoyl-CoA reductase (Homo sapiens), Q9NZ01 (parent)
chain: B6 chain
partner: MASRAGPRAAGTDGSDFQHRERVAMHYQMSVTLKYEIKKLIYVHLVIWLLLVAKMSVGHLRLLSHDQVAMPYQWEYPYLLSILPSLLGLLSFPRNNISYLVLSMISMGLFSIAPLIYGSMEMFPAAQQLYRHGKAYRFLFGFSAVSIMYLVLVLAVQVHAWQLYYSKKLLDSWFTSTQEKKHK
B9: Very-long-chain enoyl-CoA reductase (Homo sapiens), Q9NZ01 (parent)
chain: B6 chain
partner: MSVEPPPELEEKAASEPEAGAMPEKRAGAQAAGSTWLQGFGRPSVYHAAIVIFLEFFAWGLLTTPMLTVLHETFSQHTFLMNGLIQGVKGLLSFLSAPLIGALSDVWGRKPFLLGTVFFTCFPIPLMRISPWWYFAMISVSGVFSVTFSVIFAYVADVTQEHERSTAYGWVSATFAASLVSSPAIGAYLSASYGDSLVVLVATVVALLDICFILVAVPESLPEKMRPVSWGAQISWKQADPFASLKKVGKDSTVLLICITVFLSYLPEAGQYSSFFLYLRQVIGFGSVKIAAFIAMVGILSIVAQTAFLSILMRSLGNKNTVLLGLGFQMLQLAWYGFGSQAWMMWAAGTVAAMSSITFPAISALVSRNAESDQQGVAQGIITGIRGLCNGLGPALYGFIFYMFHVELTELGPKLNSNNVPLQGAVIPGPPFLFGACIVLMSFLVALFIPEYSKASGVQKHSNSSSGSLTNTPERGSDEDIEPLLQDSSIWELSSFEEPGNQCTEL
B10: Golgi SNAP receptor complex member 2 (Homo sapiens), O14653 (parent)
chain: B1 chain
partner: B7 partner

Variants of: B1
Conditions: with lime1_human LIME1, Q9H400
G144W was tested, and the “effect of a mutation on the interaction” value was “disrupting interaction strength”.

Variants of: B2
Conditions: with grm2b_human GRAMD2B
E142K was tested, and the “effect of a mutation on the interaction” value was “with no effect”.
E85K was tested, and the “effect of a mutation on the interaction” value was “with no effect”.
With Y371H the “effect of a mutation on the interaction” value was “with no effect”.
I91V was tested, and the “effect of a mutation on the interaction” value was “with no effect”.

Variants of: B3
Conditions: with usbp1_human USHBP1, Q8N6Y0
For V94D, the “effect of a mutation on the interaction” value was “disrupting interaction strength”.

Variants of: B4
Conditions: with nacho_human TMEM35A
In the case of G144W, the “effect of a mutation on the interaction” value is reported as “with no effect”.

Variants of: B5
Conditions: with lrc4c_human LRRC4C
For Y441S, the “effect of a mutation on the interaction” value was “disrupting interaction strength”.

Variants of: B6
Conditions: with get1_human GET1, O00258
P182L was tested, and the “effect of a mutation on the interaction” value was “disrupting interaction strength”.

Variants of: B7
Conditions: with FAM209A
In the case of E85K, the “effect of a mutation on the interaction” value is reported as “disrupting interaction strength”.
In the case of I91V, the “effect of a mutation on the interaction” value is reported as “with no effect”.
With E142K the “effect of a mutation on the interaction” value was “disrupting interaction strength”.
For Y371H, the “effect of a mutation on the interaction” value was “with no effect”.
With R28W the “effect of a mutation on the interaction” value was “with no effect”.

Variants of: B8
Conditions: with jagn1_human JAGN1, Q8N5M9
In the case of P182L, the “effect of a mutation on the interaction” value is reported as “with no effect”.

Variants of: B9
Conditions: with mf14b_human MFSD14B
P182L was tested, and the “effect of a mutation on the interaction” value was “disrupting interaction strength”.

Variants of: B10
Conditions: with FAM209A
G144W was tested, and the “effect of a mutation on the interaction” value was “with no effect”.

— IntAct's records for PubMed 32296183
